Assay [1] concerns the target HLA-A*02:01. Put plainly: IEDB peptide-MHC binding, purified MHC/competitive/fluorescence; ≥ and ≤ were set here for values at or beyond the usual limits of such assays.
In another assay the target is HLA-A*30:01. Put plainly: IEDB peptide-MHC binding, purified MHC/competitive/radioactivity; filed as Kd, often an IC50 or EC50 that approximates it; ≥ and ≤ were set here for values at or beyond the usual limits of such assays.
A further assay deals with HLA-A*33:01. The description is as above.
The target of assay [2] is HLA-A*26:01. The assay is described as above.
The target in assay [3] is HLA-A*24:02. Briefly: IEDB peptide-MHC binding, purified MHC/competitive/fluorescence; ≥ and ≤ were set here for values at or beyond the usual limits of such assays.
The target of assay [4] is HLA-A*02:01. Briefly: IEDB peptide-MHC binding, purified MHC/competitive/radioactivity; filed as Kd, often an IC50 or EC50 that approximates it; ≥ and ≤ were set here for values at or beyond the usual limits of such assays.
The target in a further assay is HLA-A*23:01. The description is as above.
In assay [5] the target is HLA-A*24:02. The description is as above.
For assay [6], the target named is HLA-A*03:01. Briefly: IEDB peptide-MHC binding, purified MHC/direct/fluorescence; filed as Kd, often an IC50 or EC50 that approximates it; ≥ and ≤ were set here for values at or beyond the usual limits of such assays.
Assay [7] has as its target HLA-A*11:01. The description is as above. The following applies: source organism: SARS-CoV1.
The target in assay [8] is HLA-A*31:01. Described as above.
The target of a further assay is HLA-B*27:05. The assay is described as above. Particulars: source organism: SARS-CoV1.
In a further assay the target is HLA-B*44:02. Put plainly: IEDB peptide-MHC binding, purified MHC/competitive/radioactivity; filed as Kd, often an IC50 or EC50 that approximates it; ≥ and ≤ were set here for values at or beyond the usual limits of such assays. The following applies: source organism: Dengue virus 1 Brazil/97-11/1997.
The target in assay [9] is HLA-A*03:01. Described as above. The following applies: source organism: Vaccinia virus WR.
Assay [10] addresses HLA-A*11:01. Described as above. The following applies: source organism: Vaccinia virus WR.
Assay [11] concerns the target HLA-A*31:01. Described as above. The following applies: source organism: Vaccinia virus WR.
The next assay has as its target HLA-A*68:01. The assay is described as above. The following applies: source organism: Vaccinia virus WR.
For another assay, the target named is HLA-B*53:01. The description is as above. The following applies: source organism: Dengue virus 2 Jamaica/1409/1983.
The target in a further assay is HLA-B*15:01. Briefly: IEDB peptide-MHC binding, purified MHC/direct/fluorescence; filed as Kd, often an IC50 or EC50 that approximates it; ≥ and ≤ were set here for values at or beyond the usual limits of such assays. Particulars: source organism: Haemophilus influenzae.
In assay [12] the target is HLA-A*26:01. Described as above. Particulars: source organism: Vibrio vulnificus CMCP6.
[13] abbreviates: source organism: Zaire ebolavirus.
Setting [14] is: source organism: Dengue virus 1 Brazil/97-11/1997.
Where [15] appears, read: source organism: Dengue virus 3 Martinique/1243/1999.
[16] abbreviates: source organism: Sudan ebolavirus.
The mark [17] stands for this setting: source organism: Vaccinia virus WR.
Where [18] appears, read: source organism: Lassa virus Josiah.
Where [19] appears, read: source organism: Dengue virus 2 Jamaica/1409/1983.
Setting [20] is: source organism: Haemophilus influenzae.

A value given as a limit tells only on which side of the number the result lay.

The values that follow come from the Immune Epitope Database (IEDB).

A word on the IC50: it is the concentration at which inhibition is half-maximal. A higher IC50 goes with lower potency. By Kd is commonly meant the concentration at which binding is half-saturated.

Turning to LSFTVVSNG, the IC50 with HLA-A*02:01 [1] (setting [13]) was at least 325000 nM. In the case of EVKTCIWPK, the figures for the equilibrium dissociation constant (Kd) with HLA-A*30:01 (setting [14]) and with HLA-A*33:01 (setting [14]) were 1350 nM and 2.82 nM, respectively. Take TVIEHLERL: the Kd with HLA-A*26:01 [2] (setting [15]) is 81.1 nM. Regarding CLPAAPDGI, the IC50 in the assay with HLA-A*02:01 [1] (setting [13]) was found to be 3840 nM; with HLA-A*24:02 [3] (setting [13]), 37400 nM. For the sequence GLNLEGSGV, in the assay with HLA-A*02:01 [1] (setting [16]), the IC50 turned out to be 3860 nM.

On to TISGVLWQV, for which the Kd with HLA-A*02:01 [4] (source organism: Hepatitis C virus subtype 2b) was determined as 35 nM. On to PTAWQSVGH, for which the values for the IC50 with HLA-A*02:01 [1] (setting [13]) and with HLA-A*24:02 [3] (setting [13]) were at least 264000 nM and 28700 nM, respectively. Regarding KAISNARLK, in the assay with HLA-A*30:01 (setting [17]), the Kd worked out at 26 nM. In the case of DRERLKVFL, the concentration for half-maximal inhibition (IC50) with HLA-A*24:02 [3] (source organism: Variola virus) is at least 169000 nM. On to QAFTFSPTYK, for which the Kd with HLA-A*02:01 [4] (source organism: Hepatitis B virus subtype adw2) is at least 35000 nM. For the sequence VLQTFMRMA, the Kd in the assay with HLA-A*02:01 [4] (setting [18]) was at least 5000 nM. In turn, LNLSGVNNL showed an IC50 in the assay with HLA-A*02:01 [1] (setting [13]) of at least 77500 nM.

As to KIKSSNSSK, the Kd in the assay with HLA-A*30:01 (setting [17]) was determined as 14.6 nM. Turning to KRSLRPQPTE, the Kd with HLA-A*30:01 (setting [19]) worked out at 3690 nM. With GMSGGNQGA, the Kd in the assay with HLA-A*02:01 [4] (setting [18]) turned out to be 12500 nM.

In the case of TVTGILGSL, the IC50 is 22500 nM with HLA-A*02:01 [1] (setting [16]) and at least 76800 nM with HLA-A*24:02 [3] (setting [16]).

For NVWEVEDYGF, in the assay with HLA-A*23:01 (setting [15]), the Kd was 175 nM. With AFPQSNAVI, the Kd with HLA-A*24:02 [5] (setting [14]) turned out to be 2900 nM. On to AFKVRPTFA, for which, in the assay with HLA-A*30:01 (setting [19]), the Kd was 52.1 nM.

CTILAAVSVS: the Kd was at least 55900 nM with HLA-A*26:01 [2] (setting [19]) and 2830 nM in the assay with HLA-A*30:01 (setting [19]). As to SVKCQSPPS, the Kd in the assay with HLA-A*30:01 (setting [17]) was determined as 16.8 nM. Turning to CSRLQTCIK, in the assay with HLA-A*30:01 (source organism: Vaccinia virus Copenhagen), the Kd was determined as 44 nM. Take VYRIKQQGI: the Kd in the assay with HLA-A*24:02 [5] (setting [15]) turned out to be 464 nM. Regarding RHYSASFKK, the Kd turned out to be 341 nM in the assay with HLA-A*03:01 [6] (source organism: SARS-CoV1), 705 nM with HLA-A*11:01 [7], 1250 nM in the assay with HLA-A*31:01 [8] (source organism: SARS-CoV1) and 282 nM with HLA-B*27:05.

As to HEMYWVSCG, the Kd with HLA-B*44:02 was found to be 37.4 nM. Turning to AYTIGTTHF, the Kd stood at 126 nM in the assay with HLA-A*23:01 (setting [19]) and 774 nM in the assay with HLA-A*24:02 [5] (setting [19]). Consider KRDGVKRLE, for which the IC50 with HLA-A*24:02 [3] (setting [13]) is at least 173000 nM.

MAICSAVPTE: the Kd in the assay with HLA-A*30:01 (source organism: Dengue virus 4 Philippines/H241/1956) came to 10600 nM.

For YPNVCIFGN, the IC50 with HLA-A*24:02 [3] (source organism: Vaccinia virus) was found to be 35500 nM. Consider MDSRPQKIW, for which the IC50 was at least 191000 nM with HLA-A*02:01 [1] (setting [13]) and 67800 nM with HLA-A*24:02 [3] (setting [13]). Sequence STSNGLITS yielded an IC50 with HLA-A*02:01 [1] (setting [16]) of at least 177000 nM. On the same count and under the same terms, under MVPLHIPEG stands 38200 nM. For the sequence LTKLFSYGT, the IC50 with HLA-A*02:01 [1] (source organism: Variola virus) was 36100 nM. As to KFRPGSLIY, the Kd with HLA-A*03:01 [9] was at least 21300 nM; in the assay with HLA-A*11:01 [10], at least 58400 nM; with HLA-A*30:01 (setting [17]), 0.303 nM; with HLA-A*31:01 [11], 11300 nM; in the assay with HLA-A*33:01 (setting [17]), at least 77700 nM; with HLA-A*68:01 it was at least 77700 nM. Turning to EPIPMSTYGW, the Kd with HLA-A*26:01 [2] (setting [19]) was at least 40500 nM; in the assay with HLA-B*53:01, 334 nM. Take ILKEHVSRY: the results for the Kd with HLA-A*03:01 [6] (setting [20]), in the assay with HLA-A*31:01 [8] (setting [20]) and with HLA-B*15:01 were 3180 nM, 5580 nM and 531 nM, respectively.

In the case of ILDKVLVHP, the Kd in the assay with HLA-A*02:01 [4] (source organism: Homo sapiens) stood at 4080 nM. In the assay with HLA-A*26:01 [12], EGINELGAM registered a Kd of 48 nM. In the assay with HLA-A*24:02 [3] (setting [16]), LFQKAFSMP showed an IC50 of 2780 nM.
